Here are results for 71 sequences from PMC4434323.

The target in data set [1] is lin-48 (F34D10.5) (Caenorhabditis elegans) (UniProt G5EDU6).
For data set [2], the target named is T1, che-1 (C55B7.12) (Caenorhabditis elegans) (UniProt Q966L8).
T1 sequence: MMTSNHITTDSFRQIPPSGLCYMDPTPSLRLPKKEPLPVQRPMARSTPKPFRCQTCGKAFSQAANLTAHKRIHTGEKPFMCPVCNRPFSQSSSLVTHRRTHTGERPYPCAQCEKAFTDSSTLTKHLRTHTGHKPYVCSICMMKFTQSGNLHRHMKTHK

Data set [3] has as its target T2, F13H6.1 (F13H6.1) (Caenorhabditis elegans) (UniProt H2KZR6).
T2 sequence: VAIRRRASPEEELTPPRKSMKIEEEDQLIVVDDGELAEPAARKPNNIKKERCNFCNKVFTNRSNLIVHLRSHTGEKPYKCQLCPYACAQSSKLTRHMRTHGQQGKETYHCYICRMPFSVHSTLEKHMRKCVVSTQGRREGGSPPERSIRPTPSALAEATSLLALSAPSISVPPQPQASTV

Data set [4] has as its target T3, Y44A6D.3 (Y44A6D.3) (Caenorhabditis elegans) (UniProt Q9XXE0).
T3 sequence: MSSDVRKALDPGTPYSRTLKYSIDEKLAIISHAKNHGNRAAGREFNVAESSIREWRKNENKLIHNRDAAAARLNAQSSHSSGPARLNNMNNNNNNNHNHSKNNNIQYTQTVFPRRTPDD

Data set [5] concerns the target T4, F10B5.3 (F10B5.3) (Caenorhabditis elegans) (UniProt Q09534).
T4 sequence: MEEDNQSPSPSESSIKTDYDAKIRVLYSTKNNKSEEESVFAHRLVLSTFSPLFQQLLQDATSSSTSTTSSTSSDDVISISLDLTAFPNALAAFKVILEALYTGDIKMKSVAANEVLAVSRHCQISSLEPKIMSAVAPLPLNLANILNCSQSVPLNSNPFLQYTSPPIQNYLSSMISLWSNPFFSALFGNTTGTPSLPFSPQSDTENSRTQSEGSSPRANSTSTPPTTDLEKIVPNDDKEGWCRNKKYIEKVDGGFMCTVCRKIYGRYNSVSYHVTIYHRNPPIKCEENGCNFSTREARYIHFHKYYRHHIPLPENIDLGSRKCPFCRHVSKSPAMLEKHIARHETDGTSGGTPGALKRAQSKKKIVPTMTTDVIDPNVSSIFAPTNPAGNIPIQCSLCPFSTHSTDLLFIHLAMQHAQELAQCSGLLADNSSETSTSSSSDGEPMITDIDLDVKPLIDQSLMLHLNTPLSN

Data set [6] addresses T5, nhr-204 (R02C2.4) (Caenorhabditis elegans) (UniProt O44543).
T5 sequence: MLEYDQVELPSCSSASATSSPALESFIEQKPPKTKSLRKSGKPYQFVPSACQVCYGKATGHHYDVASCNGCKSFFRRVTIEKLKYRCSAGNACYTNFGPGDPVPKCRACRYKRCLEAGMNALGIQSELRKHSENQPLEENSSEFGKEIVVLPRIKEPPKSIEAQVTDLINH

The target of data set [7] is odd-2 (C34H3.2) (Caenorhabditis elegans) (UniProt Q9N5X6).
Chain of odd-2 (C34H3.2) (Caenorhabditis elegans) (Q9N5X6 74-252): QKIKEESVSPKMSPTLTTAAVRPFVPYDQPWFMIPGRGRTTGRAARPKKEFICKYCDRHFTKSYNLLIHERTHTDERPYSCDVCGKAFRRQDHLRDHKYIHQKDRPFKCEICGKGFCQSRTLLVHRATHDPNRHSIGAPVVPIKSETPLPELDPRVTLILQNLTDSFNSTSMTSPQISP

Chain of lin-48 (F34D10.5) (Caenorhabditis elegans) (G5EDU6 83-280): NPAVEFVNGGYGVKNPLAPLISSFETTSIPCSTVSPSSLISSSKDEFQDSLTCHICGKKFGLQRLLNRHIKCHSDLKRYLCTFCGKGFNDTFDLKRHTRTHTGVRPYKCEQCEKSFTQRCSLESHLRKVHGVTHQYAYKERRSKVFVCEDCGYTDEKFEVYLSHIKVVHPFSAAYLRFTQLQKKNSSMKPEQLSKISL

“AACCGTTA (double strand) [8-mer AACCGTTA]” came in with a binding signal (PBM E-score (-0.5 to 0.5)) in data set [1] of 0.49.
In the case of “AAGGCTTC (double strand) [8-mer AAGGCTTC]”, the binding signal (PBM E-score (-0.5 to 0.5)) in data set [2] came out at 0.494.
The same measure, in the same setting: under “AGGAAGCC (double strand) [8-mer AGGAAGCC]” stands 0.49.
In turn, “GGTGGTCA (double strand) [8-mer GGTGGTCA]” came in with a binding signal (PBM E-score (-0.5 to 0.5)) in data set [3] of 0.494.
Consider “ATGCGCGG (double strand) [8-mer ATGCGCGG]”, for which the binding signal (PBM E-score (-0.5 to 0.5)) in data set [4] worked out at 0.494.
For the sequence “GAGTGACC (double strand) [8-mer GAGTGACC]”, the binding signal (PBM E-score (-0.5 to 0.5)) in data set [3] turned out to be 0.496.
For the sequence “AGGCTTCC (double strand) [8-mer AGGCTTCC]”, the binding signal (PBM E-score (-0.5 to 0.5)) in data set [2] was determined as 0.491.
In the case of “CCTGCGCA (double strand) [8-mer CCTGCGCA]”, in data set [4], the binding signal (PBM E-score (-0.5 to 0.5)) amounted to 0.493.
Consider “AGGGCTTC (double strand) [8-mer AGGGCTTC]”, for which, in data set [2], the binding signal (PBM E-score (-0.5 to 0.5)) was 0.497.
As to “TTCGAGAA (double strand) [8-mer TTCGAGAA]”, the binding signal (PBM E-score (-0.5 to 0.5)) in data set [5] amounted to 0.477.
Sequence “ACTGACCA (double strand) [8-mer ACTGACCA]” showed a binding signal (PBM E-score (-0.5 to 0.5)) in data set [3] of 0.497.
In data set [2], “AGAAGCCC (double strand) [8-mer AGAAGCCC]” yielded a binding signal (PBM E-score (-0.5 to 0.5)) of 0.491.
In the case of “GTGGTCAA (double strand) [8-mer GTGGTCAA]”, the binding signal (PBM E-score (-0.5 to 0.5)) in data set [3] is 0.496.
“GGGCTTCA (double strand) [8-mer GGGCTTCA]” gave a binding signal (PBM E-score (-0.5 to 0.5)) in data set [2] of 0.493.
In the case of “TACACGAA (double strand) [8-mer TACACGAA]”, in data set [5], the binding signal (PBM E-score (-0.5 to 0.5)) was 0.476.
Same read-out and setting: in the case of “TCCACGAA (double strand) [8-mer TCCACGAA]” it was 0.476.
Same read-out and setting: under “ATTTCCAG (double strand) [8-mer ATTTCCAG]” stands 0.473.
“ATGGCTTC (double strand) [8-mer ATGGCTTC]” yielded a binding signal (PBM E-score (-0.5 to 0.5)) in data set [2] of 0.495.
The same measure, in the same setting: under “GAAGCCCC (double strand) [8-mer GAAGCCCC]” stands 0.492.
In turn, “CCGCGCAG (double strand) [8-mer CCGCGCAG]” came in with a binding signal (PBM E-score (-0.5 to 0.5)) in data set [4] of 0.495.
For “ACTGGTCA (double strand) [8-mer ACTGGTCA]”, in data set [3], the binding signal (PBM E-score (-0.5 to 0.5)) came out at 0.495.
Same read-out and setting: under “AAGTGACC (double strand) [8-mer AAGTGACC]” stands 0.494.
“ACCGTTAT (double strand) [8-mer ACCGTTAT]” had a binding signal (PBM E-score (-0.5 to 0.5)) in data set [1] of 0.493.
Consider “CTTGACCA (double strand) [8-mer CTTGACCA]”, for which the binding signal (PBM E-score (-0.5 to 0.5)) in data set [3] amounted to 0.496.
Sequence “CCTCGAAA (double strand) [8-mer CCTCGAAA]” showed a binding signal (PBM E-score (-0.5 to 0.5)) in data set [5] of 0.474.
On the same count and under the same terms, under “GTTCCAGA (double strand) [8-mer GTTCCAGA]” stands 0.473.
As to “GACCGTTA (double strand) [8-mer GACCGTTA]”, in data set [1], the binding signal (PBM E-score (-0.5 to 0.5)) was found to be 0.496.
Turning to “AATGACCA (double strand) [8-mer AATGACCA]”, in data set [3], the binding signal (PBM E-score (-0.5 to 0.5)) is 0.496.
Consider “ACTGCGCA (double strand) [8-mer ACTGCGCA]”, for which the binding signal (PBM E-score (-0.5 to 0.5)) in data set [4] amounted to 0.498.
The sequence “ACCGTTAG (double strand) [8-mer ACCGTTAG]” showed a binding signal (PBM E-score (-0.5 to 0.5)) in data set [1] of 0.489.
For “AGTGACCA (double strand) [8-mer AGTGACCA]”, in data set [3], the binding signal (PBM E-score (-0.5 to 0.5)) stood at 0.498.
The sequence “CCGTTATC (double strand) [8-mer CCGTTATC]” returned a binding signal (PBM E-score (-0.5 to 0.5)) in data set [1] of 0.49.
The sequence “TTCCGGAA (double strand) [8-mer TTCCGGAA]” gave a binding signal (PBM E-score (-0.5 to 0.5)) in data set [5] of 0.49.
For the sequence “CTGCGCAG (double strand) [8-mer CTGCGCAG]”, the binding signal (PBM E-score (-0.5 to 0.5)) in data set [4] is 0.496.
Turning to “AAGAAGCC (double strand) [8-mer AAGAAGCC]”, in data set [2], the binding signal (PBM E-score (-0.5 to 0.5)) was 0.493.
Sequence “GGCTTCCC (double strand) [8-mer GGCTTCCC]” came in with a binding signal (PBM E-score (-0.5 to 0.5)) in data set [2] of 0.497.
On to “AGTGGTCA (double strand) [8-mer AGTGGTCA]”, for which the binding signal (PBM E-score (-0.5 to 0.5)) in data set [3] came out at 0.497.
As to “ATAACGGA (double strand) [8-mer ATAACGGA]”, in data set [1], the binding signal (PBM E-score (-0.5 to 0.5)) was determined as 0.485.
Consider “TAACGGGA (double strand) [8-mer TAACGGGA]”, for which the binding signal (PBM E-score (-0.5 to 0.5)) in data set [1] was found to be 0.49.
As for “AGAAGCCA (double strand) [8-mer AGAAGCCA]”, the binding signal (PBM E-score (-0.5 to 0.5)) in data set [2] was 0.489.
In turn, “TAACGGTA (double strand) [8-mer TAACGGTA]” had a binding signal (PBM E-score (-0.5 to 0.5)) in data set [1] of 0.494.
As to “CCGCGCAC (double strand) [8-mer CCGCGCAC]”, in data set [4], the binding signal (PBM E-score (-0.5 to 0.5)) came out at 0.496.
For the sequence “CCGTTATA (double strand) [8-mer CCGTTATA]”, the binding signal (PBM E-score (-0.5 to 0.5)) in data set [1] worked out at 0.494.
In the case of “ACCGCGCA (double strand) [8-mer ACCGCGCA]”, the binding signal (PBM E-score (-0.5 to 0.5)) in data set [4] is 0.495.
In turn, “TCGTGGAA (double strand) [8-mer TCGTGGAA]” registered a binding signal (PBM E-score (-0.5 to 0.5)) in data set [5] of 0.483.
For the sequence “ATTGGTCA (double strand) [8-mer ATTGGTCA]”, the binding signal (PBM E-score (-0.5 to 0.5)) is 0.477 in data set [6] and 0.495 in data set [3].
The sequence “AATGGTCA (double strand) [8-mer AATGGTCA]” returned a binding signal (PBM E-score (-0.5 to 0.5)) in data set [3] of 0.495.
For the sequence “TCCTGGAA (double strand) [8-mer TCCTGGAA]”, the binding signal (PBM E-score (-0.5 to 0.5)) in data set [5] worked out at 0.491.
Still for that read-out and setting: under “TCCTCGAA (double strand) [8-mer TCCTCGAA]” stands 0.481.
In data set [5], “CCTGGAAA (double strand) [8-mer CCTGGAAA]” showed a binding signal (PBM E-score (-0.5 to 0.5)) of 0.48.
In data set [1], “ATAACGGG (double strand) [8-mer ATAACGGG]” displayed a binding signal (PBM E-score (-0.5 to 0.5)) of 0.494.
On the same count and under the same terms, in the case of “AGTAACGG (double strand) [8-mer AGTAACGG]” it was 0.487.
In turn, “TCTGGAAA (double strand) [8-mer TCTGGAAA]” had a binding signal (PBM E-score (-0.5 to 0.5)) in data set [5] of 0.487.
“GTAACGGA (double strand) [8-mer GTAACGGA]” gave a binding signal (PBM E-score (-0.5 to 0.5)) in data set [1] of 0.485.
On to “ATGAAGCC (double strand) [8-mer ATGAAGCC]”, for which the binding signal (PBM E-score (-0.5 to 0.5)) in data set [2] was 0.489.
Consider “CAGTAGCG (double strand) [8-mer CAGTAGCG]”, for which the binding signal (PBM E-score (-0.5 to 0.5)) in data set [7] worked out at 0.488.
Same read-out and setting: in the case of “AACAGTAG (double strand) [8-mer AACAGTAG]” it was 0.492.
The same measure, in the same setting: under “GCTACTGA (double strand) [8-mer GCTACTGA]” stands 0.486.
Regarding “CTGACCAC (double strand) [8-mer CTGACCAC]”, in data set [3], the binding signal (PBM E-score (-0.5 to 0.5)) was found to be 0.495.
In data set [2], “GGAAGCCC (double strand) [8-mer GGAAGCCC]” returned a binding signal (PBM E-score (-0.5 to 0.5)) of 0.495.
In the case of “CGGTAGCA (double strand) [8-mer CGGTAGCA]”, in data set [7], the binding signal (PBM E-score (-0.5 to 0.5)) is 0.496.
“GTCCGTTA (double strand) [8-mer GTCCGTTA]” showed a binding signal (PBM E-score (-0.5 to 0.5)) in data set [1] of 0.487.
Still for that read-out and setting: under “ACCGTTAC (double strand) [8-mer ACCGTTAC]” stands 0.497.
“ACGGTAGC (double strand) [8-mer ACGGTAGC]” came in with a binding signal (PBM E-score (-0.5 to 0.5)) in data set [7] of 0.498.
For the sequence “GGAAGCCA (double strand) [8-mer GGAAGCCA]”, the binding signal (PBM E-score (-0.5 to 0.5)) in data set [2] was determined as 0.494.
On to “GATGACCA (double strand) [8-mer GATGACCA]”, for which, in data set [3], the binding signal (PBM E-score (-0.5 to 0.5)) stood at 0.494.
In data set [7], “CCGGTAGC (double strand) [8-mer CCGGTAGC]” came in with a binding signal (PBM E-score (-0.5 to 0.5)) of 0.496.
In turn, “GTTGACCA (double strand) [8-mer GTTGACCA]” registered a binding signal (PBM E-score (-0.5 to 0.5)) in data set [3] of 0.494.
Consider “CTGGAAAA (double strand) [8-mer CTGGAAAA]”, for which, in data set [5], the binding signal (PBM E-score (-0.5 to 0.5)) is 0.475.
Consider “CCGTTACA (double strand) [8-mer CCGTTACA]”, for which the binding signal (PBM E-score (-0.5 to 0.5)) in data set [1] turned out to be 0.486.
On to “CGGTAGCC (double strand) [8-mer CGGTAGCC]”, for which the binding signal (PBM E-score (-0.5 to 0.5)) in data set [7] amounted to 0.485.
